Results reported in patent US20240343803A1 (SHANDONG SIMCERE BIOPHARMACEUTICAL, published 2024).

T1: cynomolgus monkey PVRIG on FlpinCHO-cyno PVRIG cells (cynomolgus monkey, UniProt A0A2K5WVV8 41-322)
T1 construct: whole, on cells
T1 sequence: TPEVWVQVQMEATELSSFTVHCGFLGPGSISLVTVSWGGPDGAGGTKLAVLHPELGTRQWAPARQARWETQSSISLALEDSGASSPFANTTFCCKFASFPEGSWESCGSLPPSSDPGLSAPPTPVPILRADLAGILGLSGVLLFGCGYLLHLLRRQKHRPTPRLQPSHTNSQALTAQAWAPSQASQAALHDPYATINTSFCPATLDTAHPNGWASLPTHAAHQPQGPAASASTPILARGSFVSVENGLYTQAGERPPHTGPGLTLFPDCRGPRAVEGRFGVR

T2: cynomolgus monkey PVRIG (Novoprotein, Cat NO. C09B) (cynomolgus monkey, UniProt A0A2K5WVV8 41-171)
T2 construct: also called cynomolgus monkey PVRIG protein
T2 sequence: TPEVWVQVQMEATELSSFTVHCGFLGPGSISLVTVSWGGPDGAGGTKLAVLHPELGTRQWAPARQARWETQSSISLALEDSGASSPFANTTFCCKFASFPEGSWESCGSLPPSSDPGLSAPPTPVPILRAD

T3: human PVRIG-his (AcroBiosystems, Cat NO. PVG-H52H4) (human, UniProt Q6DKI7 41-171, limits assumed)
T3 construct: also called human PVRIG protein
T3 sequence (looked up): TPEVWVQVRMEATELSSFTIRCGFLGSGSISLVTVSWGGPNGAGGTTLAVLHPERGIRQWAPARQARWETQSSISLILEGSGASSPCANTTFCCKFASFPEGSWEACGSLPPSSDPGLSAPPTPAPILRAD


Assays:
[1] = molecular target: T1, cynomolgus monkey PVRIG on …; experiment: FACS, FlpinCHO-cyno PVRIG cells
Description: The antibodies were diluted from the highest concentration of 46 nM (two-fold concentration) with staining buffer by 3.3-fold serial dilution. The diluted antibodies were added to the well containing 50 μL of cell suspension. The plate was placed on a microplate shaker at 400 rpm for 1 minute to fully mix the antibodies and cells, and then incubated at 4° C. for 30 minutes. After the incubation, the cells were washed twice with staining buffer (200 μL per well) and centrifuged at 350×g for 5 minutes to discard the supernatant. The PE goat anti-human IgG Fc antibody (ebioscience, 12-4998-82) was diluted 250 times with staining buffer, added into the washed wells (100 μL per well), mixed well, and stained at 4° C. for 30 minutes. After staining, the cells were washed twice with staining buffer, finally resuspended with 200 μL staining buffer and analyzed by flow cytometry (BD, Canto II). The stronger the signal, the stronger the ability of the antibodies binds to PVRIG. An antibody binding curve was drawn with concentration of antibodies as the abscissa and the corresponding Mean Fluorescence Intensity (MFI) as the ordinate. The AUC value of the curve was calculated by using a Four Parameter Logistic Fit (GraphPadPrism9). The stronger the AUC value, the stronger the ability of the antibodies binds to FlpinCHO-PVRIG and FlpinCHO-cyno PVRIG. […] The binding activity of the antibodies was normalized to the positive control COM701-hIgG1 and SRF813-hIgG1. The higher the percentage value, the stronger the binding ability of the antibodies.
The methods refer to Example 19. The stronger the AUC value, the stronger the ability of the humanized antibodies binds to FlpinCHO-human/cyno PVRIG.

[2] = molecular target: T2, cynomolgus monkey PVRIG (Novoprotein, …); experiment: ELISA, antigen coated
Description: (§1) The ELISA plate was pre-coated with 100 μL/well of 0.5 μg/mL human PVRIG-his (AcroBiosystems, Cat NO. PVG-H52H4) or cynomolgus monkey PVRIG (Novoprotein, Cat NO. C09B). The tested anti-PVRIG humanized antibodies were serially diluted (initial concentration 3 nM, 3-fold serial dilution), added into the plate (100 μL/well) and incubated with shaking at room temperature for 1.5 hours. […] A HRP substrate, TMB (Thermo, Cat NO. 34029) was added into wells after washing the plate again for color development. After adding a termination solution to terminate the reaction, the absorbance value was read by a microplate reader (MD i3×). An antibody binding curve was drawn with concentration of antibodies as the abscissa and the corresponding OD value as the ordinate. The EC50 value was calculated by using a Four Parameter Logistic Fit (GraphPadPrism9). The smaller the EC50 value, the stronger the ability of the antibodies binds to human or cynomolgus monkey PVRIG. The binding effect of the humanized antibodies was normalized to the corresponding parental antibodies. If the percentage value is higher than 100%, the binding effect of humanized antibodies is better than that of parental antibody.

[3] = molecular target: T3, human PVRIG-his (AcroBiosystems, Cat …); experiment: ELISA, antigen coated
Description: as §1

Row | Binder | AUC % to COM701-hIgG1 [1] [%] | AUC % to SRF813-hIgG1 [1] [%] | AUC % to parental Ab [1] [%] | % relative activity parental antibody/tested antibody [2] [%] | EC50 [2] [nM] | % relative activity parental antibody/tested antibody [3] [%] | EC50 [3] [nM]
1 | PVRIG-A105 (Fc fusion, heavy chain antibody VHH-hinge-CH2-CH3, human IgG1 constant part; not shown: human IgG1 hinge-CH2-CH3) EVQLVESGGGLVQAGGSLRLSCAASGRTFDRHTMTWFRQAPGKEREFVATASRIPGDTYYSHSVKGRFTISRDNAKNTVYLQLNNLKPEDTAVYYCAATSAYCSEVDCYEKGSWYDNWGQGIQVTVSS | 87.5 | 108 | 100 | – | – | – | –
2 | PVRIG-A50 (Fc fusion, heavy chain antibody VHH-hinge-CH2-CH3, human IgG1 constant part; also called PVRIG-50; not shown: human IgG1 hinge-CH2-CH3) EVQLVESGGGLVQPGGSLRLSCAASGFTFSYYDMSWVRQAPGKGLEWVSTINSNGGRTSYVDSVKGRFTISRDNTKNTLYLQMNSLKPEDTAVYYCVEGDPHNFGLENLSLRDFGSWGQGTQVTVSS | 47.1 | 57.8 | 100 | – | – | – | –
3 | PVRIG-A50-H1a (Fc fusion, humanized variant of PVRIG-A50; also called A50.VH1a; not shown: constant part not restated for the humanized forms; parents are VHH-hinge-CH2-CH3 of human IgG1; detected by anti-human) EVQLVESGGGLVQPGGSLRLSCAASGFTFSYYDMSWVRQAPGKGLEWVSTINSDGGRTSYVDSVKGRFTISRDNSKNTLYLQMNSLRAEDTAVYYCVEGDPHNFGLENLSLRDFGSWGQGTMVTVSS | 40.7 | 50 | 86.5 | 66.4 | 0.185 | 92.4 | 0.099
4 | PVRIG-A50-H1b (Fc fusion, humanized variant of PVRIG-A50; also called A50.VH1b; not shown: constant part not restated for the humanized forms; parents are VHH-hinge-CH2-CH3 of human IgG1; detected by anti-human) EVQLVESGGGLVQPGGSLRLSCAASGFTFSYYDMSWVRQAPGKGLEWVSTINSDGGRTSYVDSVKGRFTISRDNSKNTLYLQMNSLRAEDTAVYYCVEGDPHNFGLESLSLRDFGSWGQGTMVTVSS | 34.4 | 42.2 | 73.1 | 75.8 | 0.161 | 111 | 0.0819
5 | PVRIG-A118 (Fc fusion, heavy chain antibody VHH-hinge-CH2-CH3, human IgG1 constant part; not shown: human IgG1 hinge-CH2-CH3) QVQLVESGGGLVQAGGSLRLSCAASETYFDLYVMGWYRQAPGKDRELVATITYTGSIKIVDSVKDRFTISRGDAKNTVSLQMSSLKPEDTAVYFCNADPSGLGRKVYWGQGTQVTVSS | 62.4 | 76.1 | 100 | – | – | – | –

The remaining lines, values ahead:

Row | AUC % to COM701-hIgG1 [1] [%] | AUC % to SRF813-hIgG1 [1] [%] | AUC % to parental Ab [1] [%] | % relative activity parental antibody/tested antibody [2] [%] | EC50 [2] [nM] | % relative activity parental antibody/tested antibody [3] [%] | EC50 [3] [nM] | Binder
6 | 80.3 | 99.6 | 91.8 | 89.4 | 0.0361 | 140 | 0.0521 | PVRIG-A105-H4 (Fc fusion, humanized variant of PVRIG-A105; also called A105.VH4; not shown: constant part not restated for the humanized forms; parents are VHH-hinge-CH2-CH3 of human IgG1; detected by anti-human) EVQLVESGGGLVQPGGSLRLSCAASGRTFDRHTMTWFRQAPGKEREFVATASRIPGDTYYSHSVKGRFTISRDNAKNSLYLQMNSLRAEDTAVYYCAATSAYCSEVDCYEKGSWYDNWGQGTMVTVSS
7 | 81.3 | 101 | 93 | 107 | 0.0303 | 150 | 0.0487 | PVRIG-A105-H1 (Fc fusion, humanized variant of PVRIG-A105; also called A105.VH1; not shown: constant part not restated for the humanized forms; parents are VHH-hinge-CH2-CH3 of human IgG1; detected by anti-human) EVQLVESGGGLVQPGGSLRLSCAASGRTFDRHTMSWFRQAPGKEREFVATASRIPGDTYYVDSVKGRFTISRDNAKNSLYLQMNSLRAEDTAVYYCAATSAYCSEVDCYEKGSWYDNWGQGTMVTVSS
8 | 86.4 | 107 | 98.8 | 91.7 | 0.0352 | 125 | 0.0585 | PVRIG-A105-H3 (Fc fusion, humanized variant of PVRIG-A105; also called A105.VH3; not shown: constant part not restated for the humanized forms; parents are VHH-hinge-CH2-CH3 of human IgG1; detected by anti-human) EVQLVESGGGLVQPGGSLRLSCAASGRTFDRHTMTWFRQAPGKEREFVATASRIPGDTYYVDSVKGRFTISRDNAKNSVYLQMNSLRAEDTAVYYCAATSAYCSEVDCYEKGSWYDNWGQGTMVTVSS
9 | 38.8 | 47.6 | 82.5 | 69.5 | 0.177 | 87.3 | 0.105 | PVRIG-A50-H1c (Fc fusion, humanized variant of PVRIG-A50; also called A50.VH1c; not shown: constant part not restated for the humanized forms; parents are VHH-hinge-CH2-CH3 of human IgG1; detected by anti-human) EVQLVESGGGLVQPGGSLRLSCAASGFTFSYYDMSWVRQAPGKGLEWVSTINSDGGRTSYVDSVKGRFTISRDNSKNTLYLQMNSLRAEDTAVYYCVEGDPHNFGLENLALRDFGSWGQGTMVTVSS
10 | 42.4 | 52.1 | 90.2 | 68.3 | 0.18 | 140 | 0.0655 | PVRIG-A50-H2a (Fc fusion, humanized variant of PVRIG-A50; also called A50.VH2a; not shown: constant part not restated for the humanized forms; parents are VHH-hinge-CH2-CH3 of human IgG1; detected by anti-human) EVQLVESGGGLVQPGGSLRLSCAASGFTFSYYDMSWVRQAPGKGLEWVSTINSNAGRTSYVDSVKGRFTISRDNTKNTLYLQMNSLRAEDTAVYYCVEGDPHNFGLESLSLRDFGSWGQGTMVTVSS
11 | 43.3 | 53.2 | 92 | 89.5 | 0.138 | 116 | 0.0791 | PVRIG-A50-H1e (Fc fusion, humanized variant of PVRIG-A50; also called VH1e; not shown: constant part not restated for the humanized forms; parents are VHH-hinge-CH2-CH3 of human IgG1; detected by anti-human) EVQLVESGGGLVQPGGSLRLSCAASGFTFSYYDMSWVRQAPGKGLEWVSTINSNAGRTSYVDSVKGRFTISRDNSKNTLYLQMNSLRAEDTAVYYCVEGDPHNFGLESLSLRDFGSWGQGTMVTVSS
12 | 21.3 | 26 | 34.2 | 37.1 | 0.0729 | 95.8 | 0.0522 | PVRIG-A118-H4 (Fc fusion, humanized variant of PVRIG-A118; also called A118.VH4; not shown: constant part not restated for the humanized forms; parents are VHH-hinge-CH2-CH3 of human IgG1; detected by anti-human) EVQLVESGGGLVQPGGSLRLSCAASETYFDLYVMGWYRQAPGKDRELVATITYTGSIKYVDSVKGRFTISRGDAKNSLSLQMNSLRAEDTAVYYCNADPSGLGRKVYWGQGTMVTVSS
